We go through two molecules from publication PMC4930246 (Structure (London, England : 1993), 2015).

The series “AUC” deals with the molecule itself. The series can be described thus: AUC.
In another series the target is T1, FLRT3-LRR R117T (mouse, UniProt Q8BGT1 29-386, R117T, additional N-linked glycosylation at Asn115).
T1 sequence (looked up): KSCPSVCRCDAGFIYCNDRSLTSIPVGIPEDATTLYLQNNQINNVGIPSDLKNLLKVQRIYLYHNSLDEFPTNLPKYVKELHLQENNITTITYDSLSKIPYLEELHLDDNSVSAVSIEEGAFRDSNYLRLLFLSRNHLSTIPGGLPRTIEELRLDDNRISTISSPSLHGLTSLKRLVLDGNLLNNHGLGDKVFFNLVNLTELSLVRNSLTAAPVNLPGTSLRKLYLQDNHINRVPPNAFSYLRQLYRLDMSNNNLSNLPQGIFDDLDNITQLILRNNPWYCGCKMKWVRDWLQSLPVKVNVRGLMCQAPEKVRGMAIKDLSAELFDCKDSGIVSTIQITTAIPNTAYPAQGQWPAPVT
The series can be described thus: ITC. On the technique in general: In ITC the heat of successive injections is recorded.

In another series the target is T2, FLRT3-LRR F160A (mouse, UniProt Q8BGT1 29-386, F160A).
T2 sequence (looked up): T1 sequence (looked up) with T89R, F132A
Kind of series: ITC.

Residue numbers refer to the chain shown, from its start.

B1: FLRT3-LRR (leucine-rich repeat domain of mouse FLRT3, amino acids 29-386) (domain or fragment, UniProt Q8BGT1 29-386, looked up)
chain: T1 sequence (looked up) with T89R
modifications: N-linked glycosylation (three predicted sites; one N-Acetyl-glucosamine modelled on Asn226)
Turning to B1, in the series “AUC”, binding was characterised by a dissociation constant (Kd) of 43.3 µM and the stoichiometry N (as a rule, a count of units in the complex or per binding partner) was found to be 2.

B2: LPHN3-OLF (olfactomedin domain of mouse latrophilin 3, amino acids 199-495) (domain or fragment, UniProt Q80TS3 199-495, looked up)
chain: KVFLCPGLLKGVYQSEHLFESDHQSGAWCKDPLQASDKIYYMPWTPYRTDTLTEYSSKDDFIAGRPTTTYKLPHRVDGTGFVVYDGALFFNKERTRNIVKFDLRTRIKSGEAIIANANYHDTSPYRWGGKSDIDLAVDENGLWVIYATEQNNGKIVISQLNPYTLRIEGTWDTAYDKRSASNAFMICGILYVVKSVYEDDDNEATGNKIDYIYNTDQSKDSLVDVPFPNSYQYIAAVDYNPRDNLLYVWNNYHVVKYSLDFGPLDSRSGPVHHGQVSYISPPIHLDSELERPPVRGI
Consider B2, for which the Kd (commonly a measure of binding affinity in units of concentration) in the series with FLRT3-LRR R117T stood at 27 nM; with FLRT3-LRR F160A, 1000 nM.
